For 31 molecules, IC50 results are on record in article PMC2596764 (Nature immunology, 2008).

Read-outs that look alike come from different tables or passages of the source. Non-standard residues stand in square brackets, D forms with d. Residues, ends and D or L forms follow the SMILES beside them. No end group written: not given here. pS = N[C@@H](COP(=O)(O)O)C(=O)O

For one assay, the target named is HLA-A2 (Homo sapiens, UniProt P04439, D140Y/D185E/D98H/E176V/E277Q/G131W/G231S/I119V/I121R/I166T/I218V/L300P/L318F/N151K/N90K/P208A/P217A/Q86G/Q94H/R138H/R169H/T345S). Description: Competitive peptide binding assay to purified HLA-A2.
Assay [1] deals with HLA-A2-R65A (Ala substitution for Arg65) (Homo sapiens, UniProt P04439, D140Y/D185E/D98H/E176V/E277Q/G131W/G231S/I119V/I121R/I166T/I218V/N151K/N90K/P208A/P217A/Q86G/Q94H/R138H/R169H). The experiment in a line: Competitive peptide binding assay to mutant HLA-A2-R65A.
The target in assay [2] is HLA-A*0201 (HLA-A2) heavy chain refolded with β2-microglobulin. Description: radioligand binding.
Assay [3] has as its target HLA-A2-R65A heavy chain refolded with β2-microglobulin. The experiment in a line: radioligand binding.
Assay [4] has as its target HLA-A*0201 (HLA-A2) heavy chain refolded with β2-microglobulin. The experiment in a line: radioligand binding. The source holds these as a separate data set.
The target of assay [5] is HLA-A2-R65A heavy chain refolded with β2-microglobulin. Description: radioligand binding. The source holds these as a separate data set.

Take `CC[C@H](C)[C@H](NC(=O)CNC(=O)[C@H](COP(=O)(O)O)NC(=O)[C@H](CC(=O)O)NC(=O)[C@H](CC(C)C)NC(=O)[C@@H](N)Cc1ccc(O)cc1)C(=O)N[C@@H](Cc1c[nH]cn1)C(=O)N[C@@H](CO)C(=O)NCC(=O)N[C@@H](C)C(=O)O` [YLDpSGIHSGA] (H-YLD[pS]GIHSGA-OH): the IC50 at HLA-A2 was found to be 146 nM.

`CC(C)[C@H](NC(=O)CNC(=O)[C@H](CO)NC(=O)[C@@H](NC(=O)[C@@H]1CCCN1C(=O)[C@H](COP(=O)(O)O)NC(=O)[C@H](C)NC(=O)[C@@H](NC(=O)[C@@H](N)CCCNC(=N)N)C(C)C)[C@@H](C)O)C(=O)O` [RVApSPTSGV] (H-RVA[pS]PTSGV-OH) showed an IC50 on HLA-A2 of 178 nM.

Take `CC[C@H](C)[C@H](NC(=O)[C@H](CO)NC(=O)[C@H](C)NC(=O)[C@H](CCC(N)=O)NC(=O)[C@@H](N)CCCNC(=N)N)C(=O)N[C@@H](CCC(=O)O)C(=O)N[C@@H](CC(C)C)C(=O)N1CCC[C@H]1C(=O)N[C@@H](CO)C(=O)N[C@@H](CCSC)C(=O)O` (H-RQASIELPSM-OH): the IC50 on HLA-A2 came to 1770 nM; in assay [1] it was 2140 nM.

`CC[C@H](C)[C@H](NC(=O)[C@H](COP(=O)(O)O)NC(=O)[C@H](C)NC(=O)[C@H](CCC(N)=O)NC(=O)[C@H](C)N)C(=O)N[C@@H](CCC(=O)O)C(=O)N[C@@H](CC(C)C)C(=O)N1CCC[C@H]1C(=O)N[C@@H](CO)C(=O)N[C@@H](CCSC)C(=O)O` [AQApSIELPSM]: the IC50 stood at 58.7 nM on HLA-A2 and 972 nM in assay [1].

`CSCC[C@H](NC(=O)[C@H](CC(=O)O)NC(=O)[C@H](CC(C)C)NC(=O)[C@H](Cc1ccccc1)NC(=O)[C@H](COP(=O)(O)O)NC(=O)[C@H](CC(=O)O)NC(=O)[C@H](CCSC)NC(=O)[C@@H](N)CCCCN)C(=O)N[C@@H](CCC(N)=O)C(=O)N[C@@H](CC(C)C)C(=O)O` [KMDpSFLDMQL] (H-KMD[pS]FLDMQL-OH) had an IC50 at HLA-A2 of 3.4 nM.

On HLA-A2, `CSCC[C@H](NC(=O)[C@@H]1CCCN1C(=O)CNC(=O)[C@H](COP(=O)(O)O)NC(=O)[C@H](Cc1ccc(O)cc1)NC(=O)[C@@H](NC(=O)[C@@H](N)CCCNC(=N)N)[C@@H](C)O)C(=O)N[C@@H](CC(N)=O)C(=O)N[C@@H](CCCCN)C(=O)N[C@H](C(=O)O)C(C)C` [RTYpSGPMNKV] (H-RTY[pS]GPMNKV-OH) yielded an IC50 of 117 nM.

For `CC[C@H](C)[C@H](NC(=O)[C@H](COP(=O)(O)O)NC(=O)[C@H](C)NC(=O)[C@H](CCC(N)=O)NC(=O)[C@@H](N)CCCNC(=N)N)C(=O)N[C@@H](CCC(=O)O)C(=O)N[C@@H](CC(C)C)C(=O)N1CCC[C@H]1C(=O)N[C@@H](CO)C(=O)N[C@@H](CCSC)C(=O)O` [RQApSIELPSM] (H-RQA[pS]IELPSM-OH), the IC50 is 11.2 nM at HLA-A2 and 20 nM in assay [1].

Regarding `CC(C)C[C@H](NC(=O)CNC(=O)[C@H](Cc1ccc(O)cc1)NC(=O)[C@@H](NC(=O)[C@@H]1CCCN1C(=O)[C@H](COP(=O)(O)O)NC(=O)[C@H](Cc1ccccc1)NC(=O)[C@@H](NC(=O)[C@@H](N)CCCNC(=N)N)[C@@H](C)O)[C@@H](C)O)C(=O)O` [RTFpSPTYGL] (H-RTF[pS]PTYGL-OH), the IC50 on HLA-A2 is 32.5 nM.

Take AQApSIELPSM (peptide): the IC50 in assay [2] was determined as 58.7 nM; in assay [3] it was 972 nM.

The molecule `CC[C@H](C)[C@H](NC(=O)[C@H](CO)NC(=O)[C@H](CC(C)C)NC(=O)[C@H](COP(=O)(O)O)NC(=O)[C@H](C)NC(=O)[C@H](CCC(N)=O)NC(=O)[C@@H](N)CCCNC(=N)N)C(=O)N[C@@H](CO)C(=O)N[C@H](C(=O)O)C(C)C` [RQApSLSISV] (H-RQA[pS]LSISV-OH) displayed an IC50 at HLA-A2 of 38.5 nM.

Regarding `CC[C@H](C)[C@H](NC(=O)[C@H](CO)NC(=O)[C@H](C)NC(=O)[C@H](CCC(N)=O)NC(=O)[C@H](C)N)C(=O)N[C@@H](CCC(=O)O)C(=O)N[C@@H](CC(C)C)C(=O)N1CCC[C@H]1C(=O)N[C@@H](CO)C(=O)N[C@@H](CCSC)C(=O)O`, the IC50 was 1180 nM at HLA-A2 and 1060 nM in assay [1].

Consider `CC[C@H](C)[C@H](NC(=O)[C@H](CC(C)C)NC(=O)[C@@H](N)CCCCN)C(=O)N[C@@H](CC(=O)O)C(=O)N[C@@H](CCCNC(=N)N)C(=O)N[C@H](C(=O)N[C@@H](CCC(=O)O)C(=O)N[C@@H](COP(=O)(O)O)C(=O)N[C@@H](CC(C)C)C(=O)O)[C@@H](C)O` [KLIDRTEpSL] (H-KLIDRTE[pS]L-OH), for which the IC50 at HLA-A2 is 62.4 nM.

On HLA-A2, `CC[C@H](C)[C@H](NC(=O)[C@H](CO)NC(=O)[C@H](C)NC(=O)[C@H](CC(C)C)NC(=O)[C@@H](N)CCCNC(=N)N)C(=O)N[C@@H](CCC(=O)O)C(=O)N[C@@H](CC(C)C)C(=O)N1CCC[C@H]1C(=O)N[C@@H](CO)C(=O)N[C@H](C(=O)O)C(C)C` (H-RLASIELPSV-OH) showed an IC50 of 0.9 nM.

`CC(C)C[C@H](NC(=O)CN)C(=O)N[C@@H](CC(C)C)C(=O)NCC(=O)N[C@@H](COP(=O)(O)O)C(=O)N1CCC[C@H]1C(=O)N[C@H](C(=O)N[C@@H](CCCNC(=N)N)C(=O)N[C@@H](C)C(=O)O)C(C)C` [GLLGpSPVRA] (H-GLLG[pS]PVRA-OH) displayed a half-inhibitory concentration (IC50) at HLA-A2 of 169 nM.

With KMDSFLDMQL (not fully specified) [… (non-phosphorylated counterpart of KMDpSFLDMQL)], the IC50 in assay [4] is 11.4 nM.

For the molecule YLD[pS]GIHSGA [YLDpSGIHSGA], in assay [4], the concentration for half-maximal inhibition (IC50) was 146 nM.

Molecule GLLGSPVRA (not fully specified) [… (non-phosphorylated counterpart of GLLGpSPVRA)] came in with an IC50 in assay [4] of 219 nM.

Molecule KLIDRTESL (not fully specified) [… (non-phosphorylated counterpart of KLIDRTEpSL)] registered an IC50 in assay [4] of 102 nM.

As for RVASPTSGV (not fully specified) [… (non-phosphorylated counterpart of RVApSPTSGV)], in assay [4], the IC50 worked out at 731 nM.

The molecule RTF[pS]PTYGL [RTFpSPTYGL] came in with an IC50 in assay [4] of 32.5 nM.

In assay [4], RVA[pS]PTSGV [RVApSPTSGV] came in with an IC50 of 178 nM.

For YLDSGIHSGA (not fully specified) [… (non-phosphorylated counterpart of YLDpSGIHSGA)], in assay [4], the IC50 came out at 83.5 nM.

RTYSGPMNKV (not fully specified) [… (non-phosphorylated counterpart of RTYpSGPMNKV)] had an IC50 in assay [4] of 793 nM.

KLIDRTE[pS]L [KLIDRTEpSL] displayed an IC50 in assay [4] of 62.4 nM.

Consider RQA[pS]IELPSM [RQApSIELPSM], for which the IC50 turned out to be 11.2 nM in assay [4] and 20 nM in assay [5].

As to RQASLSISV (not fully specified) [… (non-phosphorylated counterpart of RQApSLSISV)], the IC50 in assay [4] amounted to 284 nM.

In assay [4], RQA[pS]LSISV [RQApSLSISV] returned an IC50 of 38.5 nM.

In assay [4], RTFSPTYGL (not fully specified) [… (non-phosphorylated counterpart of RTFpSPTYGL)] returned an IC50 of 408 nM.

KMD[pS]FLDMQL [KMDpSFLDMQL] had an IC50 in assay [4] of 3.4 nM.

GLLG[pS]PVRA [GLLGpSPVRA] showed an IC50 in assay [4] of 169 nM.

As to RTY[pS]GPMNKV [RTYpSGPMNKV], the IC50 in assay [4] was 117 nM.

A word on the IC50: it is the concentration at which inhibition is half-maximal.
